We go through 8 substances from patent US20260183437A1, “VHH ANTIBODY CONJUGATES WITH HETEROARYL CHELATORS” (ABDERA THERAPEUTICS INC., priority 2022, published 2026).

The target of one data set is T1, hFcRn (Homo sapiens, UniProt P55899).
T1 construct: purchased Sino Biological CT071-H27H-B
The experiment in a line: FcRn affinity by biolayer interferometry (Octet RED96e), pH 6.0. The settings on record: pH 6.0, 2:1 binding model. As for the experimental part:
FcRn affinity of VHH-Fc can generally be used to predict the half-life of antibody serum clearance. (See, e.g., Datta-Mannan A et al. “FcRn affinity-pharmacokinetic relationship of five human IgG4 antibodies engineered for improved in vitro FcRn binding properties in cynomolgus monkeys.” Drug Metab Dispos. 2012 August; 40(8):1545-55). Briefly, 10 nM of biotinylated hFcRn (Sino Biological, Cat #: CT071-H27H-B) was captured with the SA biosensor using Octet RED96e (Fortebio). The hFcRN coated biosensor was dipped into the sample solutions in sodium phosphate buffer (100 mM Na2HPO4, 150 mM NaCl w/ 0.05% Tween-20, pH 6.0) with serial concentrations of tested antibodies and the association measured. The dissociation was measured by dipping the biosensors into sodium phosphate buffer without antibody. The KD values were determined using Octet Data Analysis HT 11.0 software. 2:1 (Heterogeneous Ligand) binding model was used in analysis. […] Changes in FcRn affinity were consistent across targets. Constructs with Fc Effector mutation only have no impact on FcRn affinity.
A general note: In BLI a coated tip is dipped into the sample, and binding shifts an interference pattern.

For a further data set, the system named is BT-474 tumor. The experiment in a line: Biodistribution of ^111In radiolabeled VHH-Fcs, SPECT/CT imaging. It counts as in vivo, mice. The settings on record: labeled with ^111In, compared with H101. The method, then:
The objective of this study was to observe the biodistribution of ^111In radiolabeled SPECT/CT imaging across select test articles in BT-474 tumor (breast cancer cells) bearing nude mice. The following articles were tested at a CAR of about 4: ^111In-H101-4-1, ^111In-H1014-2, ^111In-H105-4-2, ^111In-H107-4-2, and ^111In-H108-4-2. FIGS. 9A, 9B, and 9C show tissue accumulation over time for ^111In-H101-SL, ^111In-H101-4-2, and ^111In-H108-4-2. […] FIGS. 10A, 10B, and 10C show tumor:tissue ratios. In each case, the tumor:tissue ratios were greater than 5, indicating increased tumor accumulation and better profiles used for determining safety (e.g., as compared lower tumor:tissue ratios). […] In each case, the VHH-Fc variants show advantageous targeting of tumor tissue.

The next data set concerns the target T2, human insulin (Homo sapiens, UniProt P01308).
T2 construct: 5 μg/mL of human insulin (SigmaAlrich, Cat #: I9278); purchased SigmaAlrich I9278
The data set can be described thus: Polyreactivity ELISA. In kind it is binding. The settings on record: 10 μg/mL VHH-Fc; signal normalized to non-coated well. As for the experimental part: Polyreactivity of VHH-Fcs against negatively charged biomolecules was determined by ELISA (As in Avery et al., “Establishing in vitro in vivo correlations to screen monoclonal antibodies for physicochemical properties related to favorable human pharmacokinetics.” MAbs. 2018 February/March; 10(2):244-255). Briefly, ELISA plate was coated with 5 μg/mL of human insulin (SigmaAlrich, Cat #: I9278) and 10 μg/mL of double stranded DNA (SigmaAlrich, Cat #: D1626-250MG) overnight. The plate was blocked with ELISA buffer (PBS, 1 mM EDTA, 0.05% Tween-20, pH 7.4). 10 μg/mL of test VHH-Fcs was loaded onto the plates in quadruplicates and incubated for 2 hours. Goat anti-human Fc(0.01 ug/ml) conjugated with HRP was then added and the plate incubated for 1 hour. The signal was developed with TMB and A450 absorbance was measured with Synergy Neo2 plate reader. The signal was normalized with the signal of non-coated well for each antibody tested.

A short description of data set [1]: Pharmacokinetics of VHH-Fc variants in Tg32 (humanized FcRn) mice. In kind it is in vivo. The settings on record: IV 3 mg/kg, HER2 VHH-Fc study (Table 6). The method, then:
Twenty eight (28) 8 week old male B6. Cg-Fcgrt^tm1Der Tg(FCGRT)32Dcr/DcrJ (Tg32 hom, JAX stock #014565) mice were distributed into 7 groups with 4 mice per group as outlined in the table. […] (See, e.g., Avery L B et al. “Utility of a human FcRn transgenic mouse model in drug discovery for early assessment and prediction of human pharmacokinetics of monoclonal antibodies.” MAbs. 2016 August-September; 8(6):1064-78). On Day 0, body weights were measured and test articles were IV administered to all mice at 3 mg/kg and 5 mL/kg. 25 μL blood samples were collected from each mouse at time intervals. The blood samples were collected into 1 μL K3EDTA, processed to plasma, diluted 1/10 in 50% glycerol in PBS, transferred into specialized 96 well storage plates, and stored at −20° C. All plasma samples were assessed via a hIgG ELISA chosen for its high sensitivity for all seven test articles.

In a further data set the target is T3, FcγRIIa (R167) (Homo sapiens, UniProt P12318, H167R).
T3 construct: purchased Acro Biosystems
T3 sequence (P12318 36-218 H167R limits assumed): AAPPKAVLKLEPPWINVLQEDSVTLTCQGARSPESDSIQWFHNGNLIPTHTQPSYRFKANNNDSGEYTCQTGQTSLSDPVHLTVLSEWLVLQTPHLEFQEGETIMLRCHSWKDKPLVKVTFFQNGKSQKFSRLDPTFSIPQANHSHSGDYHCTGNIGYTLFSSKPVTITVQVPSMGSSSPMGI
The experiment in a line: FcγR affinity by biolayer interferometry (Octet Red96e). It counts as binding. As for the experimental part: (§1) VHH-Fcs were also tested for affinity to FcγRs by biolayer interferometry using the Octet Red96e platform. Each cycle is performed with orbital shake speed of 1,000 rpm. Streptavidin (SA) biosensors (Sartorius 18-5019) were rehydrated for 10 mins using kinetics buffer (PBS+0.1% BSA+0.02% Tween-20). Biotinylated-FcγRs (Acro Biosystems) were then loaded for 40-100 s onto SA biosensors at concentrations ranging between 1-5 μg/mL diluted in PBS. VHH-Fcs were serially diluted 1:2 in sample buffer (PBS+0.02% Tween-20) with starting concentrations ranging between 5000 nM to 37.5 nM. Loaded biosensors were then associated with VHH-Fcs for 60-120 s. VHH-Fc dissociation was measured for 30-900 s in sample buffer. Bound VHH-Fcs were then removed using 3 cycles of 5 s regeneration buffer (150 mM NaCl, 300 mM Sodium Citrate) and 5 s sample buffer. The data was analyzed either using a globally-fitted 1:1 Langmuir binding model (FcγRI) or steady state analysis (Octet software version HT v11.1).

For another data set, the target named is T4, FcγRIIb/c (Homo sapiens, UniProt P31994).
T4 construct: purchased Acro Biosystems
T4 sequence (P31994 43-310): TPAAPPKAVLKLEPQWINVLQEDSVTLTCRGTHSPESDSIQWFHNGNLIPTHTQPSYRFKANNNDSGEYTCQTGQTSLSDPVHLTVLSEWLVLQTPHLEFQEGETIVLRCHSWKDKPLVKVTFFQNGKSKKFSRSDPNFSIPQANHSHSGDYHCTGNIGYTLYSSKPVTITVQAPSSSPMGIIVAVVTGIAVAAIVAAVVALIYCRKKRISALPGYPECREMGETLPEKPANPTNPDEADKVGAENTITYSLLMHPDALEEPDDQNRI
The data set is described as above. In kind it is binding. The method, then: as §1

The next data set addresses T5, FcγRI (Homo sapiens, UniProt P12314).
T5 construct: purchased Acro Biosystems
The description is as above. In kind it is binding. The method, then: as §1

T2 sequence (P01308 25-54 limits assumed): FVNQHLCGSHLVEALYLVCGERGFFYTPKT
T2 sequence (P01308 90-110 limits assumed): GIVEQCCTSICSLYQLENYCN
T1 sequence (P55899 24-297 limits assumed): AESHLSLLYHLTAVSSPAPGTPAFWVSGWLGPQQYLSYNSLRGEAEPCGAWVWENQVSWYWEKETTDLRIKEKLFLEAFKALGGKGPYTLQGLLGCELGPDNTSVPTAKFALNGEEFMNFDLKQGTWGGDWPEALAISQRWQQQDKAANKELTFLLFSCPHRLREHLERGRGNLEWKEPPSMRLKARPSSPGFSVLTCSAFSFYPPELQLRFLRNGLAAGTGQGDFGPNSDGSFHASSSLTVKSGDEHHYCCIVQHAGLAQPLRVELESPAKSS
T1 sequence (P61769 21-119 partner): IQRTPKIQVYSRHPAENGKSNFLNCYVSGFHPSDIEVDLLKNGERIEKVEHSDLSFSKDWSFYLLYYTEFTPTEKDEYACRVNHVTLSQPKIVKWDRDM
T5 sequence (P12314 16-374): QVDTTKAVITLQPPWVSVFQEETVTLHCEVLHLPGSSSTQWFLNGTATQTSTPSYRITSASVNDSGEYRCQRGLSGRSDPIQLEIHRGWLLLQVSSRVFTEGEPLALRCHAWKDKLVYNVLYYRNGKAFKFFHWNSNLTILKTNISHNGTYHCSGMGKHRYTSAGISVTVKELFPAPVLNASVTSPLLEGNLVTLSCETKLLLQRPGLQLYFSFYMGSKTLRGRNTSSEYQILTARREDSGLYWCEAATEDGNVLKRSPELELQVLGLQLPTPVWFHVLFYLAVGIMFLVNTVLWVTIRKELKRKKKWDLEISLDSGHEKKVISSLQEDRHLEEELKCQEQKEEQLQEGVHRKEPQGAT

“H107: anti-HER2 VHH-Fc, FcRn mutant H310A [Compound H107]”: the “KD (nM) to FcRn” value with hFcRn is recorded as “No binding”. In the data set on BT-474 tumor, the Whole body clearance entry is “increased clearance”. For the same substance, the “Polyreactivity Assay Score, Insulin” value with human insulin is reported as 1.306. In addition, in data set [1], the Clearance is 304.4 mL/day, the Cmax is 62.4 µg/mL and the “Terminal Half-Life” value stood at 0.41 days.

Take “H135: anti-HER2 VHH-Fc, H310A, Fc effector mutant AEASS [Compound H135]”: in the data set with hFcRn, the “KD (nM) to FcRn” value is recorded as “No binding”. Further, in the data set with FcγRIIa (R167), the Kd amounted to 1200 nM. In addition, the “FcγRIIb/c nM KD” value with FcγRIIb/c is “weak”.

In the data set with hFcRn, “H106: anti-HER2 VHH-Fc, FcRn mutant S254A [Compound H106]” yielded a Kd of 13 nM. Besides, the “Polyreactivity Assay Score, Insulin” value with human insulin amounted to 1.321. For the same substance, in data set [1], the Clearance stood at 19.8 mL/day, the Cmax is 53.5 µg/mL and the “Terminal Half-Life” value was 7.10 days.

With “H137: anti-HER2 VHH-Fc, H435Q, Fc effector mutant AEASS [Compound H137]”, in the data set with hFcRn, the “KD (nM) to FcRn” value is reported as “Weak”. The substance also displayed a Kd with FcγRIIa (R167) of 1200 nM. Also, the “FcγRIIb/c nM KD” value with FcγRIIb/c is “weak”.

Take “H109: anti-HER2 VHH-Fc, FcRn mutant Y463A (as printed) [Compound H109]”: binding with hFcRn was put at a Kd of 13 nM. Further, the “Polyreactivity Assay Score, Insulin” value with human insulin came out at 1.244. In addition, in data set [1], the Clearance was found to be 18.2 mL/day, the Cmax was determined as 52.2 µg/mL and the “Terminal Half-Life” value worked out at 6.92 days.

Consider “H108: anti-HER2 VHH-Fc, FcRn mutant H435Q [Compound H108]”, for which the “KD (nM) to FcRn” value with hFcRn is given as “Weak”. Also, in the data set on BT-474 tumor, the Whole body clearance entry was “increased clearance”. Besides, the “Polyreactivity Assay Score, Insulin” value with human insulin was 1.420. In data set [1], the Clearance was found to be 117.5 mL/day, the peak concentration (Cmax) came out at 46.6 µg/mL and the “Terminal Half-Life” value was 1.57 days.

On to “H105: anti-HER2 VHH-Fc, FcRn mutant I253A [Compound H105]”, for which the “KD (nM) to FcRn” value with hFcRn was “Weak”. Moreover, the Whole body clearance entry in the data set with BT-474 tumor was “increased clearance”. Besides, in the data set with human insulin, the “Polyreactivity Assay Score, Insulin” value is given as 1.207. In data set [1], the Clearance turned out to be 152.1 mL/day, the maximum concentration (Cmax) worked out at 63.9 µg/mL and the “Terminal Half-Life” value is 1.12 days.

For “H133: anti-HER2 VHH-Fc, FcRn wt, Fc effector mutant AEASS [Compound H133]”, the Kd worked out at 2.1 nM with hFcRn, 1 nM in the data set with FcγRI and 2300 nM with FcγRIIa (R167). Besides, the “FcγRIIb/c nM KD” value in the data set with FcγRIIb/c is reported as “weak”.

For orientation: Cmax means the highest concentration seen after dosing. For orientation: Kd means the constant that tells how readily two partners part at equilibrium. A lower Kd goes with tighter binding.
